“And” between values parts separate entries of the source, which are not always exact repeats. Equal values may be shown once.
T1: ESCRT-I purified from E. coli (Vps23, Vps28, Vps37) (yeast, UniProt P25604 1-385; Q02767 1-242; Q99176 1-213)
T1 sequence (looked up) 1: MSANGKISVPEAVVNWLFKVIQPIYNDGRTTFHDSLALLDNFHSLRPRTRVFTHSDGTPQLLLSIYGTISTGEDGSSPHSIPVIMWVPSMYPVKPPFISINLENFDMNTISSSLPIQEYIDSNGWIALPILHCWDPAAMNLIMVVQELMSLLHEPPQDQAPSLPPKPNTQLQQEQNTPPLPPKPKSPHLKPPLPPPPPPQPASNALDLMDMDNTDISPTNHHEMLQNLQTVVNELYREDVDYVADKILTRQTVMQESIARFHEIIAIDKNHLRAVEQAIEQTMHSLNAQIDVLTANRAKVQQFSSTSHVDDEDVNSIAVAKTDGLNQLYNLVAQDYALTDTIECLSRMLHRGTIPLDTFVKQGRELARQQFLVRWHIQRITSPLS
T1 sequence (looked up) 2: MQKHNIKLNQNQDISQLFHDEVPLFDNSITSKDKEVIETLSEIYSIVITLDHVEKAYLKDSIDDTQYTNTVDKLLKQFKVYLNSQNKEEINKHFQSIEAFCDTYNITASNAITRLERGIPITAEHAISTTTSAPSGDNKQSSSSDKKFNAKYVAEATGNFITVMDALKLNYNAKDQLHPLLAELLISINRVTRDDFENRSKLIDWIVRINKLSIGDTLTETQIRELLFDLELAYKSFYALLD
T1 sequence (looked up) 3: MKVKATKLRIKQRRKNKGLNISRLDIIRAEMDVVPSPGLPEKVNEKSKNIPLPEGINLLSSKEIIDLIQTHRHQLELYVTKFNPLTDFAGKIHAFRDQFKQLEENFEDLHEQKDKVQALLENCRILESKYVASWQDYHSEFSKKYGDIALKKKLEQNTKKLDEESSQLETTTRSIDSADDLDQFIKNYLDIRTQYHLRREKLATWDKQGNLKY


What was measured:
[1] = biological target: ESCRT-I purified from E. coli (Vps23, Vps28, Vps37) (yeast) (UniProt P25604); test: cross-linking
[2] = biological target: T1, ESCRT-I purified from E. coli (Vps23, …)

Molecule | stoichiometry N [1] | stoichiometry N [2]
ESCRT-I purified from E. coli (Vps23, Vps28, Vps37) (from UniProt P25604 1-385; Q02767 1-242; Q99176 1-213) (complex) | 2 and 3 | –
Mvb12, E. coli-expressed (unpublished in vitro analyses) (natural protein, yeast, UniProt P42939 1-101, looked up) MNNNVEELLRRIPLYNKYGKDFPQETVTRFQMPEFKLPALQPTRDLLCPWYEECDNITKVCQLHDSSNKKFDQWYKEQYLSKKPPGIVGNTLLSPSRKDNS | – | 1

— PMC2064680 (The Journal of Cell Biology, 2006)
